Experimental data as given in US20210371536A1 (SEOUL NATIONAL UNIVERSITY R AND DB FOUNDATION, published 2021).
Each block holds one binder with its values, some of them ahead of it.

Experiments:
[1] = molecular target: T1, cynomolgus monkey PDGFR-β (Fc chimera) (cynomolgus monkey); assay: cross-species ELISA on coated antigen, 100 nM bispecific, HRP-anti-human Cκ detection
T1 construct: not shown: human Fc (hFc) and its junction to the receptor part
T1 chain: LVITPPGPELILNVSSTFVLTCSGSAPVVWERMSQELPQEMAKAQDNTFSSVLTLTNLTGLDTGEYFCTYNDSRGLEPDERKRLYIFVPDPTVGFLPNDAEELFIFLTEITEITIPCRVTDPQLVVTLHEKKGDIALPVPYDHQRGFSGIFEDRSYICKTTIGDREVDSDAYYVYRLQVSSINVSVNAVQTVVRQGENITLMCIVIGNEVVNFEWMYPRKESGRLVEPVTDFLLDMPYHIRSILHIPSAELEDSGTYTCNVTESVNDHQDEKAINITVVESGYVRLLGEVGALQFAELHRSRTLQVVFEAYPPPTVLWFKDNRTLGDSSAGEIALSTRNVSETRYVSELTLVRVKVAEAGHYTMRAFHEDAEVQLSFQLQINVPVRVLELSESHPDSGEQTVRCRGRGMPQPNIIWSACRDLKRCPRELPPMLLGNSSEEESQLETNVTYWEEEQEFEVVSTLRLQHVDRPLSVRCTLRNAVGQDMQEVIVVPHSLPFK

[2] = molecular target: T2, Sus scrofa PDGFR-β-Fc chimera (Sus scrofa, UniProt Q6QNF3 33-530 (dog entry)); assay: as above
T2 construct: also called Sus crowfa PDGFR-β; not shown: human Fc (hFc) and its junction to the receptor part
T2 chain: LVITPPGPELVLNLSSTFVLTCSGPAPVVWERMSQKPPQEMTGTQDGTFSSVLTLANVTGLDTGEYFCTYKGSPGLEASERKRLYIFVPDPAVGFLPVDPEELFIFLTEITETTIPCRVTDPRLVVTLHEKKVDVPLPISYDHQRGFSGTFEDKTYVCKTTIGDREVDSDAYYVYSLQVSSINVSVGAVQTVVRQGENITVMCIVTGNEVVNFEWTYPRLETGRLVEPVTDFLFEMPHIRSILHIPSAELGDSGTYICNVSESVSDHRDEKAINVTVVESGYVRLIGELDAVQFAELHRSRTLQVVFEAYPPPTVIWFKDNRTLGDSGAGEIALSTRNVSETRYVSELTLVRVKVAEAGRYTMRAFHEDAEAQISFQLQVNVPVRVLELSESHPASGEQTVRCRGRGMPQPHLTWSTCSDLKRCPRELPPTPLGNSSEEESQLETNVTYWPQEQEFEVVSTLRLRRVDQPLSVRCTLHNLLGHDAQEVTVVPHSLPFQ

[3] = molecular target: hPDGFR-β on human pericyte cells (human, UniProt P09619 33-1106); assay: cell-based or functional assay
mPDGFR-β on NIH3T3 cells [4] = molecular target: T3, mPDGFR-β on NIH3T3 cells (mouse, UniProt P05622 32-1098); assay: flow cytometry on NIH3T3 cells expressing mPDGFR-β, streptavidin-PE detection
T3 construct: whole, on cells; also called NIH3T3 cells expressing mPDGFR-β; PDGFR-β present on the cell surface
Procedure: The cells were treated with APC-anti human Cκ antibody and streptavidin-PE.
After washing, it was classified and analyzed with a FACS Canto II instrument (BD Biosciences, San Jose, Calif., USA). 10,000 cells were used for each measurement, and the results were analyzed by FlowJo (Tree Star, Ashland, Oreg., USA).

mPDGFR-β on NIH3T3 cells [5] = molecular target: T3, mPDGFR-β on NIH3T3 cells; assay: flow cytometry on NIH3T3 cells expressing mPDGFR-β, 100 nM, APC-anti human Cκ detection

hPDGFR-β on human pericyte cells, sequence (P09619 33-1106): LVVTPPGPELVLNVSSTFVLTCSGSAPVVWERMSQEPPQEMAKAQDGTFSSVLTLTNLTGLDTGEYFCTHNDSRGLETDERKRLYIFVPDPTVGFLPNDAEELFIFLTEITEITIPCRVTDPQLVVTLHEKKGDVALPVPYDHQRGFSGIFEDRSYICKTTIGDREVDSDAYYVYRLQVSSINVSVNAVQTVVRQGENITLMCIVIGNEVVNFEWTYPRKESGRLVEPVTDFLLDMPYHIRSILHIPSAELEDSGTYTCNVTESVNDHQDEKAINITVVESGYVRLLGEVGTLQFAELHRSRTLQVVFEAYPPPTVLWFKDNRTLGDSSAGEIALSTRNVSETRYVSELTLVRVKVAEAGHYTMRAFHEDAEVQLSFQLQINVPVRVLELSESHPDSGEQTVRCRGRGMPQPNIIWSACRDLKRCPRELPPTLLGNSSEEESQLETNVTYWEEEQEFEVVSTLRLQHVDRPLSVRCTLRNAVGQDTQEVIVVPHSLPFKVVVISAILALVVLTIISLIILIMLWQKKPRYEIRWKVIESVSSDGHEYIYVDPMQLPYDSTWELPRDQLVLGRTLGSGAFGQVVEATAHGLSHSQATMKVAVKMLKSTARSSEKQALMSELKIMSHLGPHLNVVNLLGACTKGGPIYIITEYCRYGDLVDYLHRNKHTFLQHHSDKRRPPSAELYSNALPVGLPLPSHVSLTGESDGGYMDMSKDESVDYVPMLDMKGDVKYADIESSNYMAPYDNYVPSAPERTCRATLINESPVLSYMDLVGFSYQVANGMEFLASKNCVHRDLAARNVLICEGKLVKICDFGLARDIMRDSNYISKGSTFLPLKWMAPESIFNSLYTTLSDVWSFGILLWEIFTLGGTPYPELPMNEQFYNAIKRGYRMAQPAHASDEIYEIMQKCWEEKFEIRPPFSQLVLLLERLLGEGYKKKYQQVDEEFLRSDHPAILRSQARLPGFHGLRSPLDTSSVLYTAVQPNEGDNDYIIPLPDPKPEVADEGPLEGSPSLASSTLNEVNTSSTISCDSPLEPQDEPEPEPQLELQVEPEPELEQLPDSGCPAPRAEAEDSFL
T3 sequence (P05622 32-1098): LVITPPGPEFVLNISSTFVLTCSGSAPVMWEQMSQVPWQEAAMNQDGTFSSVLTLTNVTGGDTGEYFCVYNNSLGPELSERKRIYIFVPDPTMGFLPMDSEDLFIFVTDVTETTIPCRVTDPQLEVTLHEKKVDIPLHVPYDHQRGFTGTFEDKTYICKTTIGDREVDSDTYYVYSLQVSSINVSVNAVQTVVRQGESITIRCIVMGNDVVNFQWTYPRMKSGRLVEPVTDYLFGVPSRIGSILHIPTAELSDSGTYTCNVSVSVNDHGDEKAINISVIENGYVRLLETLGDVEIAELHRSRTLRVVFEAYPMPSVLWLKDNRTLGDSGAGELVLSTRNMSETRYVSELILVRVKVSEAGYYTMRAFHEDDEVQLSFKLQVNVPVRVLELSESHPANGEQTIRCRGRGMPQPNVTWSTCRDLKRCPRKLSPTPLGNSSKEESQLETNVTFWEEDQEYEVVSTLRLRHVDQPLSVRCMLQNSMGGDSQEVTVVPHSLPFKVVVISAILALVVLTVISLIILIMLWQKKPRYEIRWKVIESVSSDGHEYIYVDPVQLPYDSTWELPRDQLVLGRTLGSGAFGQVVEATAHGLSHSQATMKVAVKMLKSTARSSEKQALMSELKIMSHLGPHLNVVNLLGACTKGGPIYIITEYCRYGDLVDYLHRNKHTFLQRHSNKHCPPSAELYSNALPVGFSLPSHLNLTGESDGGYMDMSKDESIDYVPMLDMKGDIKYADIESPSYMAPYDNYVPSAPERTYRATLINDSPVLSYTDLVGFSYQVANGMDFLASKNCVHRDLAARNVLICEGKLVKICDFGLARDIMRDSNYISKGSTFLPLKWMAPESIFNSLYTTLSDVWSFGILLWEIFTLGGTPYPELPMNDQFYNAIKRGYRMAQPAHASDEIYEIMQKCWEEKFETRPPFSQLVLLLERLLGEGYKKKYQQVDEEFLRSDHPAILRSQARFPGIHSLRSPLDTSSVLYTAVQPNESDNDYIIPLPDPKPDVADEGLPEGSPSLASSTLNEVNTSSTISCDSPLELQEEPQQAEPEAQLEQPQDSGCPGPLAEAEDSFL

binding result [1]: binds
binding result [2]: binds
B1: PRb-CN16 x cotinine scFv-Cκ-scFv fusion protein (bispecific antibody) (bispecific antibody)
chain: LTQPSSVSANPGETVKITCSGSSSSYGWYQQKSPGSAPVTLIYENNQRPSNIPSRFSGSKSGSTGTLTITGVQAEDEAVYYCGNADRSNSAGTFGAGTTLTVLGQSSRSSGGGGSSGGGGSAVTLDESGGGLQTPGTALSLVCKASGFTFSSFNMAWVRQAPGKGLEFVGEISNTAGSTFYAPAVKGRATISRDNGQSTVRLQLNNLRAEDTAIYYCAKAAGTCYSHSCTGYIDAWGHGTEVIVSSTSGGGGSGGGGSGGGGSRTVAAPSVFIFPPSDEQLKSGTASVVCLLNNFYPREAKVQWKVDNALQSGNSQESVTEQDSKDSTYSLSSTLTLSKADYEKHKVYACEVTHQGLSLPVTKSFNRGESGGGGSGGGGSGGGGSDIQMTQSPSSLSASVGDRVTITCQSSQSPYSNEWLSWYQQKPGKAPKLLIYRISTLASGVPSRFSGSRSGTDFTLTISSLQPEDFATYYCAGGYNFGLFLFGQGTKVEIKGQSSRSSGGGGSSGGGGSEVQLVESGGGLVQPGGSLRLSCAASGHLRRRDWMNWVRQAPGKGLEWVAAIGRSGDTYYATWAKGRFTISADTSKNTAYLQMNSLRAEDTAVYYCSRIPYFGWNNGDIWGQGTLVTVSS
notes: also called anti-hPDGFR-β x cotinine scFv-Cκ-scFv
IC50 (nM) of relative cell viability (cellular ATP), human pericyte cells, bispecific complexed with cot-duo, with hPDGF-BB [3]: 1.82 nM
IC50 (nM) of relative cell viability (cellular ATP), human pericyte cells, bispecific complexed with cot-duo, without hPDGF-BB [3]: 2.39 nM

binding result (mPDGFR-β on NIH3T3 cells [4]): binds
B2: mPDGF-BB-biotin (ligand, mouse, UniProt P31240 82-190, looked up)
chain: SLGSLAAAEPAVIAECKTRTEVFQISRNLIDRTNANFLVWPPCVEVQRCSGCCNNRNVQCRASQVQMRPVQVRKIEIVRKKPIFKKATVTLEDHLACKCETIVTPRPVT
modifications: biotinylated (biotin-xx microscale protein labeling kit); sites not stated
notes: also called biotin-mPDGF-BB

binding result [1]: binds
binding result [2]: binds
B3: PRb-CN26 x cotinine scFv-Cκ-scFv fusion protein (bispecific antibody) (bispecific antibody)
chain: LTQPSSVSANPGETVKITCSGGGSYAGSYYYGWYQQKSPGSAPVTVIYDNTNRPSNIPSRFSGSLSGSTDTLTITGVQAEDEAVYFCGGYDGISDTGIFGAGTTLTVLGQSSRSSGGGGSSGGGGSAVTLDESGGGLQTPGGGLSLVCKASGFTFSDRGIHWVRQAPGKGLEWVAGIGNTGSYTAYAPAVKGRATISRDNGQSTVRLQLNNLRAEDTATYYCAKRGFMDAGGIDAWGHGTEVIVSSTSGGGGSGGGGSGGGGSRTVAAPSVFIFPPSDEQLKSGTASVVCLLNNFYPREAKVQWKVDNALQSGNSQESVTEQDSKDSTYSLSSTLTLSKADYEKHKVYACEVTHQGLSLPVTKSFNRGESGGGGSGGGGSGGGGSDIQMTQSPSSLSASVGDRVTITCQSSQSPYSNEWLSWYQQKPGKAPKLLIYRISTLASGVPSRFSGSRSGTDFTLTISSLQPEDFATYYCAGGYNFGLFLFGQGTKVEIKGQSSRSSGGGGSSGGGGSEVQLVESGGGLVQPGGSLRLSCAASGHLRRRDWMNWVRQAPGKGLEWVAAIGRSGDTYYATWAKGRFTISADTSKNTAYLQMNSLRAEDTAVYYCSRIPYFGWNNGDIWGQGTLVTVSS
IC50 (nM) of relative cell viability (cellular ATP), human pericyte cells, bispecific complexed with cot-duo, with hPDGF-BB [3]: 0.87 nM
IC50 (nM) of relative cell viability (cellular ATP), human pericyte cells, bispecific complexed with cot-duo, without hPDGF-BB [3]: 0.9 nM

binding result [1]: binds
binding result [2]: binds
binding result (mPDGFR-β on NIH3T3 cells [5]): binds
B4: PRb-CN32 x cotinine scFv-Cκ-scFv fusion protein (bispecific antibody) (bispecific antibody)
chain: LTQPSSVSANLGETVKITCSGGSNAGSYYYGWYQQKSPGSAPVTVIYSNNQRPSDIPSRFSGSTSGSTSTLTITGVQVDDEAVYFCGSGDSSSIAAFGAGTTLTVLGQSSRSSGGGGSSGGGGSAVTLDESGGGLQTPRGTLSLVCKASGFTFSSFNMFWVRQAPGKGLEFVAGISTTGRYTGYGSAVQGRGTISRDNGQSTVRLQLNNLRAEDTGTYYCAKSAGSTYSYWDSDAGLIDAWGHGTEVIVSSTSGGGGSGGGGSGGGGSRTVAAPSVFIFPPSDEQLKSGTASVVCLLNNFYPREAKVQWKVDNALQSGNSQESVTEQDSKDSTYSLSSTLTLSKADYEKHKVYACEVTHQGLSLPVTKSFNRGESGGGGSGGGGSGGGGSDIQMTQSPSSLSASVGDRVTITCQSSQSPYSNEWLSWYQQKPGKAPKLLIYRISTLASGVPSRFSGSRSGTDFTLTISSLQPEDFATYYCAGGYNFGLFLFGQGTKVEIKGQSSRSSGGGGSSGGGGSEVQLVESGGGLVQPGGSLRLSCAASGHLRRRDWMNWVRQAPGKGLEWVAAIGRSGDTYYATWAKGRFTISADTSKNTAYLQMNSLRAEDTAVYYCSRIPYFGWNNGDIWGQGTLVTVSS
notes: also called PRb-32; PRb-CN32 bispecific scFv-Cκ-scFv
IC50 (nM) of relative cell viability (cellular ATP), human pericyte cells, bispecific complexed with cot-duo, with hPDGF-BB [3]: 0.87 nM
IC50 (nM) of relative cell viability (cellular ATP), human pericyte cells, bispecific complexed with cot-duo, without hPDGF-BB [3]: 0.78 nM
